In publication PMC6345366 (Chemical communications (Cambridge, England), 2017):
Square brackets hold non-standard residues; d marks the D form. Ends that are not written are not given here.

T1: KDM4A tandem tudor domain (human)
T1 sequence (O75164 whole entry, looked up): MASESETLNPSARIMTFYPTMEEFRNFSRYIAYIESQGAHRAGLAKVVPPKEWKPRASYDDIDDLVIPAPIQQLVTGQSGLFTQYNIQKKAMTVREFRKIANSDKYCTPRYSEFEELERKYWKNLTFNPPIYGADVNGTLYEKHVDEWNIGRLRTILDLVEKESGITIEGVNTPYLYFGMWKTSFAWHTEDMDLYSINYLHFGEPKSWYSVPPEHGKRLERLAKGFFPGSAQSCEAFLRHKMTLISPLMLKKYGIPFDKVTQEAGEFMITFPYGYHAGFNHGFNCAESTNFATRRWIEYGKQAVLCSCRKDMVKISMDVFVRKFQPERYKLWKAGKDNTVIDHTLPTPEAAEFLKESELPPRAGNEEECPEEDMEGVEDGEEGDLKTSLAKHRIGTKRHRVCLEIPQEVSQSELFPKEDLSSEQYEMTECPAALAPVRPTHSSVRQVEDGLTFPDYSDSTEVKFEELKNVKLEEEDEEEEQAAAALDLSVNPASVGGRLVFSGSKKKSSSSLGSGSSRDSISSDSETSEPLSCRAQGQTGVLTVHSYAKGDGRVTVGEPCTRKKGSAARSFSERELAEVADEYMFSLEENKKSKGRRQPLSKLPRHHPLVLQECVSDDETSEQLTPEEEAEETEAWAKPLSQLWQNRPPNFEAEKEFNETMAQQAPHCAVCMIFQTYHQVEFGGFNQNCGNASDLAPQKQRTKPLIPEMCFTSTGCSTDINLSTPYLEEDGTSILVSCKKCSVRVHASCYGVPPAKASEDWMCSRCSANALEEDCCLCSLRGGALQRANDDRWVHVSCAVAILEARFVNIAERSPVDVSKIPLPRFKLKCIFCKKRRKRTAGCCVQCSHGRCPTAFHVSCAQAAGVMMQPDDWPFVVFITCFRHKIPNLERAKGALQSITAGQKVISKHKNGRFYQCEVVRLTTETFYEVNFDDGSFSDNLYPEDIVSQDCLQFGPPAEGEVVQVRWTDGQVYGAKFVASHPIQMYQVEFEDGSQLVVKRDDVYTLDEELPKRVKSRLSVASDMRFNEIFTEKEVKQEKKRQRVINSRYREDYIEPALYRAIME

T2: TAF3 PHD zinc finger
T2 sequence (Q5VWG9 whole entry, species assumed, looked up): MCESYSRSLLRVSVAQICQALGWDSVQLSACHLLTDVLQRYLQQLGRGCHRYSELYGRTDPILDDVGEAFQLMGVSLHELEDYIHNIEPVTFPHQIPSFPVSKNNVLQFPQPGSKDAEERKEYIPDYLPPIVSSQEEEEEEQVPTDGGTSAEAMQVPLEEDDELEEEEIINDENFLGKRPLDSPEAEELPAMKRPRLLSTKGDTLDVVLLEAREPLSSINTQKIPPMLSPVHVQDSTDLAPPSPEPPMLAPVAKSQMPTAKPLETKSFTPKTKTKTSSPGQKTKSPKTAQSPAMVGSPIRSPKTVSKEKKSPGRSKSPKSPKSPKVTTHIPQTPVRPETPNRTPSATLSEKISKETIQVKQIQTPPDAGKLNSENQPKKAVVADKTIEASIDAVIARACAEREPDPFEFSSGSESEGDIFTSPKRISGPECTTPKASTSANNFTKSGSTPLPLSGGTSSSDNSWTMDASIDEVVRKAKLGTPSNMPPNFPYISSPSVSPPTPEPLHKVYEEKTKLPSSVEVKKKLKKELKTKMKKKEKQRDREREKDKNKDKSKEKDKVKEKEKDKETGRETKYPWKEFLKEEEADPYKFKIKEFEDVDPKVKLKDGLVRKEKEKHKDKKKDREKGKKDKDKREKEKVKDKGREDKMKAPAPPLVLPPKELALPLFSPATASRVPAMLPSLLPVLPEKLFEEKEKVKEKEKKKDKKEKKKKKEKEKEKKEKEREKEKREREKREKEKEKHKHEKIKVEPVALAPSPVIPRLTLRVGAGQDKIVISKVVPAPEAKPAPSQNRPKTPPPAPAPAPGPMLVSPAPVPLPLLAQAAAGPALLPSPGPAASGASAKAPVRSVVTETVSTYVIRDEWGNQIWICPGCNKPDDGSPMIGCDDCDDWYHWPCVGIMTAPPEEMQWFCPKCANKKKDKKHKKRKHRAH

T3: KDM5A PHD3 (third PHD zinc finger of KDM5A) (UniProt P29375 1609-1659)
T3 sequence: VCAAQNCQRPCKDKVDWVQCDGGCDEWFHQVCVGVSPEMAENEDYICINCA


Experiments:
Assay in all cases: ITC
[1] = target: T1, KDM4A tandem tudor domain (human)
[2] = target: SGF29 tandem tudor domain
SGF29 tandem tudor domain, sequence (Q96ES7 whole entry, the tested form may be a part): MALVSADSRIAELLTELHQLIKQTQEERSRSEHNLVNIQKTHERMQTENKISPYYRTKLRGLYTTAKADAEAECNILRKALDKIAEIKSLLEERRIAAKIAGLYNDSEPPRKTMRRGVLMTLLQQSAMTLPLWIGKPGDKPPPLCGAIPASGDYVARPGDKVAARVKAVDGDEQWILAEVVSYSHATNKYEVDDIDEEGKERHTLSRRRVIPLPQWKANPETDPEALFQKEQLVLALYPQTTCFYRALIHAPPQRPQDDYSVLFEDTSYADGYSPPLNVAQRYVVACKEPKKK

[3] = target: T2, TAF3 PHD zinc finger
[4] = target: T3, KDM5A PHD3 (third PHD zinc finger of …)

Row | Binder | dH [1] [kcal/mol] | dH [2] [kcal/mol] | dH [3] [kcal/mol] | Kd [4] [nM] | dH [4] [kcal/mol]
1 | ARTK(Me3)QTARKS [10-mer histone peptide L-H3K4me3] | -13.1 | -7.7 | -10.1 | 110 | -11.1
2 | ART[dK](Me3)QTARKS [10-mer histone peptide D-H3K4me3] |  |  |  | 1200 | -7.8
